Data set [1] deals with T1, bsKu core (wild type) (Bacillus subtilis, UniProt O34859 18-244).
T1 sequence: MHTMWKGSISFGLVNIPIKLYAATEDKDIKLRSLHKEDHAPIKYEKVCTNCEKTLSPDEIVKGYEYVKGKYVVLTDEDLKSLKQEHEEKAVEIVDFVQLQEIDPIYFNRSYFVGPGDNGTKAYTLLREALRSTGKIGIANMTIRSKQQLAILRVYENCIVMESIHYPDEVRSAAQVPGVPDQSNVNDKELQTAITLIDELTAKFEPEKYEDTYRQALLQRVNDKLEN
Description: size-exclusion chromatography; 1:1 complex, no oligomerization; EMSA: 20 mM HEPES pH 7.5, 150 mM KCl, 1 mM DTT, 50 nM DNA, 30 min at 4°C, 15% native PAGE in 0.5x TBE, SYBR Gold; SEC: same buffer, protein:DNA 1:2, 1 h at 4°C, Superdex 75. To be noted: protein: recombinant; tags: N-terminal 8xHis-MBP, cleaved with PreScission protease; chain copies: 2; 2-nt overhang; main text says at one end. For orientation: In gel filtration, larger molecules generally elute earlier.

Data set [2] concerns the target T1, bsKu core (wild type). Description: cryo-EM; 2.74 A; two blunt ends bridged by two Ku homodimers; EMSA: 20 mM HEPES pH 7.5, 150 mM KCl, 1 mM DTT, 50 nM DNA, 30 min at 4°C, 15% native PAGE in 0.5x TBE, SYBR Gold; SEC: same buffer, protein:DNA 1:2, 1 h at 4°C, Superdex 75. The note with it: protein: recombinant, tags: N-terminal 8xHis-MBP, cleaved with PreScission protease, chain copies: 2. In general terms: Mobility shift assays separate free from complexed probe on a gel.

B1: 11-bp DNA with 2-nt overhang (dsDNA)
DNA 1: ACACACGCCGAGC
DNA 2: GCTCGGCGTGT
Turning to B1, the binding result in data set [1] is recorded as “binds”.

B2: 13-bp DNA (dsDNA)
DNA 1: GTACCTGTAGAAG
DNA 2: CTTCTACAGGTAC
In the case of B2, in data set [2], the binding result is “binds”.

Values taken from PMC12784961, “Structure of Bacillus subtilis Ku-mediated DNA synaptic complex”.
